Substrate in series [1]: Nc1ncnc2c1ncn2[C@@H]1O[C@H](COP(=O)(O)OP(=O)(O)OP(=O)(O)O)[C@@H](O)[C@H]1O
Description: purified protein. The format is biochemical, Methanothermus fervidus. To be noted: 10 mM 2,3DPG constant, Mg2+/ATP molar ratio 0.5, 50 mM MES/KOH pH 6.5, 400 mM KCl, 55°C, two-substrate Michaelis-Menten fit.

Substrate in series [2]: O=C(O)[C@@H](COP(=O)(O)O)OP(=O)(O)O
The experiment in a line: purified protein. The format is biochemical, Methanothermus fervidus. To be noted: 10 mM ATP constant, Mg2+/ATP molar ratio 0.5, 50 mM MES/KOH pH 6.5, 400 mM KCl, 55°C, two-substrate Michaelis-Menten fit.

B1: MfcDPGS (cyclic-2,3-diphosphoglycerate synthetase) (Methanothermus fervidus DSM 2088) (protein)
chain: GETKKMICLVDGEHYFPVVKDSIEILDDLEHIDVVAVVFIGGTEKLQIEDPKEYSEKLGKPVFFGPDPKKIPYDVIKKCVKKYNADIVMDLSDEPVVDYTKRFRIASIVLKEGAVYQGADFKFEPLTEYDVLEKPSIKIIGTGKRIGKTAVSAYAARVIHKHKYNPCVVAMGRGGPREPEIVEGNKIEITAEYLLEQADKGVHAASDHWEDALMSRILTVGCRRCGGGMLGDTFITNVKRGAEIANKLDSDFVIMEGSGAAIPPVKTNRQIVTVGANQPMININNFFGPFRIGLADLVIITMCEEPMATTEKIKKVEKFIKEINPSANVIPTVFRPKPVGNVEGKKVLFATTAPKVVVGKLVNYLESKYGCDVVGVTPHLSNRPLLRRDLKKYINKADLMLTELKAAAVDVATRVAIEAGLDVVYCDNIPVVIDESYGNIDDAIIEVVEMAIDDFKNNR
notes: heat precipitation and SEC; homodimer (119 kDa)
As a reminder, the Km is the concentration of substrate that gives half-maximal velocity. With B1, the Km in “purified protein [1]” was determined as 550 ± 80 µM; in “purified protein [2]”, 1520 ± 400 µM.

The values are drawn from publication PMC12136491, “Establishment of an efficient one-step enzymatic synthesis of cyclic-2,3-diphosphoglycerate” (Frontiers in Microbiology, 2025).
